Assays:
Type in all cases: biochemical, Mycoplana bullata
[1] = substrate: CC(=O)NCCCNCCCCN; experiment: Enzyme activity on acetylpolyamine substrates, partially purified product (substrate specificity, optimum pH/temperature, Km); settings: other: pH 7.0, Lineweaver-Burk plot
Method: (§1) Activity of the present enzyme (partially purified products) is measured according to the following procedure. That is, 0.1 ml of an enzyme solution is added to a reagent solution consisting of 1.5 ml of 0.1 M phosphate buffer (pH 7.0), 0.05 ml of 50 mM acetylpolyamine, 0.4 U of putrescine oxidase (when acetylputrescine, acetylcadaverine or acetylspermidine is used as substrate) or polyamine oxidase (when acetylspermidine or acetylspermine is used as substrate), 0.5 ml of 2.4 mM 4-aminoantipyrine, 0.5 ml of 42 mM phenol and 20 U of peroxidase. The mixture is incubated at 37° C., and the absorbance of quinoneimine pigment formed at 500 nm is measured.
(§2) In terms of the enzyme activity, the amount of enzyme that can hydrolyze 1 μmole of a substrate in one minute is defined as one unit (1 U).
(§3) The relative activities of acetylpolyamine amidohydrolases against various type of acetylpolyamine, defining the activities against acetylputrescine as 100 under a condition of pH 7.0, are as shown in Table 1 below.
(§4) Enzyme activity was measured at different pH levels ranging from 6 to 10 by using bis-Tris propane buffer solutions. The optimum pH was 9 for acetylputrescine and acetylcadaverine, and 8 for N^1 -acetylspermidine, N^8 -acetylspermidine and acetylspermine, as shown in FIG. 1.
(§5) The optimum working temperature for the present enzyme was about 50° C., when the relative activity was determined, using acetylputrescine as substrate, as shown in FIG. 4. The optimum temperatures for the other acetylpolyamine amidohydrolases were 30° to 40° C. This clearly distinguishes the present enzyme from the known enzymes.
(§6) Km values of the present enzyme and the other known enzymes for various types of acetylpolyamine at pH 7.0 were determined from the Line weaver-Burk plot [refer to J. Am. Chem. Soc., 56, 658 (1934)].

[2] = substrate: CC(=O)NCCCCCN; experiment: as above; settings: other: pH 7.0, Lineweaver-Burk plot
Method: as §1, §2, §3, §4, §5, §6

[3] = substrate: CC(=O)NCCCCNCCCN; experiment: as above; settings: other: pH 7.0, Lineweaver-Burk plot
Method: as §1, §2, §3, §4, §5, §6

[4] = substrate: CC(=O)NCCCCN; experiment: Enzyme activity on acetylpolyamine substrates, product purified to homogeneity (Method 2 / Method 3); settings: other: pH 9.0, Lineweaver-Burk plot
Source text: (§7) [Method 2] (Assay when acetylputrescine, acetylcadaverine, N^1 -acetylspermidine and N^8 -acetylspermidine are used as substrate:)
(§8) The acetylpolyamine can be hydrolyzed by the acetylpolyamine amidohydrolase, as described in [Method 1], and the corresponding free polyamine thus formed is then oxidized by putrescine oxidase. Putrescine oxidase derived from Micrococcus rubens is known to have an activity upon putrescine, cadaverine and spermidine [Adachi, et al., Agric. Biol. Chem, 30, 1202 (1966)]. […] The actual analytical procedure is as described below.
(§9) The above reagents, (b) through (h), were put in a cuvette (d: 1.0 cm) and the mixture was preincubated at 37° C. for 2 minutes. The substrate solution (a) was then added, and the resulting mixture was incubated at 37° C. Absorbance at 500 nm was measured over a period of 3 to 5 minutes, and the change in absorbance per minute (ΔODsample) was determined from the linear portion of the plotted curve. For control, the same procedure as above was carried out, using distilled water as reference.
(§10) One unit of acetylpolyamine amidohydrolase is defined as its amount necessary to hydrolyze 1 μmole of acetylputrescine at 37° C. for one minute (or the amount necessary to form 0.5 μmole of quinoneimine pigment formed in the method for measuring the enzyme activity described above).
(§11) [Method 3] (Assay when acetylspermine is used as substrate:)
(§12) Acetylspermine is hydrolyzed by the action of acetylpolyamine amidohydrolase into free form of spermine. The free form of spermine can be oxidized by a polyamine oxidase derived from Aspergillus terreus to produce hydrogen peroxide. […] Thus, the enzyme activity can be measured by quantitative determination of the hydrogen peroxide according to the method described above. […]
(§13) Reagents (b) through (d) given in item (1) were put in a test tube and the mixture was preincubated at 37° C. for 2 minutes. […] A sample solution (200 μl), taken from the eluate containing free form of spermine, was mixed in a cuvette with reagents (a) through (e) given in item (2) above, the mixture was incubated at 37° C. for 10 minutes, and the absorbance at 755 nm was measured. […]
(§14) The concentration of free form of spermine in the reaction mixture can be determined from a calibration curve previously prepared on the basis of aqueous soluitons of free form of spermine with different concentrations. […]
(§15) The activities upon acetylputrescine, acetylcadaverine, N^1 -acetylspermidine and N^8 -acetylspermidine were measured by [Method 2] in a phosphate buffer (pH 9.0) at a substrate concentration of 0.833 mM, and the activity upon acetyl-spermine was measured by [Method 3] under the same conditions. […] Km values, determined from the Lineweaver-Burk plot, are also listed in the same table. […]

[5] = substrate: CC(=O)NCCCNCCCCN; experiment: as above; settings: other: pH 9.0, Lineweaver-Burk plot
Source text: as §7, §8, §9, §10, §11, §12, §13, §14, §15

[6] = substrate: CC(=O)NCCCCCN; experiment: as above; settings: other: pH 9.0, Lineweaver-Burk plot
Source text: as §7, §8, §9, §10, §11, §12, §13, §14, §15

[7] = substrate: CC(=O)NCCCCNCCCN; experiment: as above; settings: other: pH 9.0, Lineweaver-Burk plot
Source text: as §7, §8, §9, §10, §11, §12, §13, §14, §15

| Protein | Km [1] [µM] | Km [2] [µM] | Km [3] [µM] | Km [4] [µM] | Km [5] [µM] | Km [6] [µM] | Km [7] [µM] |
| --- | --- | --- | --- | --- | --- | --- | --- |
| acetylpolyamine amidohydrolase (the present enzyme, partially purified product) (Mycoplana ramosa) (protein, novel acetylpolyamine amidohydrolase of the present invention accumulated within the grown cells; made in house; host or cells: Mycoplana (natural producer; cells grown in culture)) MRVIFSEDHKLRNAKTELYGGELVPPFEAPFRAEWILAAVKEAGFDDVVAPARHGLETVLKVHDAGYLNFLETAWDRWKAAGYKGEAIATSFPVRRTSPRIPTDIEGQIGYYCNAAETAISPGTWEAALSSMASAIDGADLIAAGHKAAFSLCRPPGHHAGIDMFGGYCFINNAAVAAQRLLDKGAKKIAILDVDFHHGNGTQDIFYERGDVFFASLHGDPAEAFPHFLGYAEETGKGAGAGTTANYPMGRGTPYSVWGEALTDSLKRIAAFGAEAIVVSLGVDTFEQDPISFFKLTSPDYITMGRTIAASGVPLLVVMEGGYGVPEIGLNVANVLKGVAG | 270 | 130 | 560 | – | – | – | – |
| acetylpolyamine amidohydrolase (the present enzyme, product purified to homogeneity) (Mycoplana ramosa) (protein, novel acetylpolyamine amidohydrolase of the present invention accumulated within the grown cells; made in house; host or cells: Mycoplana (natural producer)) MRVIFSEDHKLRNAKTELYGGELVPPFEAPFRAEWILAAVKEAGFDDVVAPARHGLETVLKVHDAGYLNFLETAWDRWKAAGYKGEAIATSFPVRRTSPRIPTDIEGQIGYYCNAAETAISPGTWEAALSSMASAIDGADLIAAGHKAAFSLCRPPGHHAGIDMFGGYCFINNAAVAAQRLLDKGAKKIAILDVDFHHGNGTQDIFYERGDVFFASLHGDPAEAFPHFLGYAEETGKGAGAGTTANYPMGRGTPYSVWGEALTDSLKRIAAFGAEAIVVSLGVDTFEQDPISFFKLTSPDYITMGRTIAASGVPLLVVMEGGYGVPEIGLNVANVLKGVAG | – | – | – | 220 | 130 | 50 | 310 |

From patent US4981788A, “Novel acetylpolyamine amidohydrolase” (Kyowa Hakko Kogyo Co., Ltd., priority 1987, dated 1991)
